Source: patent publication US20230190944A1
Starred links: 1 amine or outer side, 2 acyl side, 3 side chain; linkers in the order of their positions; H or OH if unused. Non-standard residues stand in square brackets, D forms with d. Groups on a side chain read outwards from the residue. *: point of attachment. C20 diacid = O=C(O)CCCCCCCCCCCCCCCCCCC(=O)*; γGlu = O=C(O)[C@H](CCC(=O)[*:2])N[*:1]; AEEA = NCCOCCOCC(=O)O; Aib = CC(C)(N)C(=O)O

Legend:
[1] = target: Human AMY1 receptor (amylin receptor 1) (human), P30988; assay: cell-based or functional assay
[2] = target: Human CT receptor (calcitonin receptor) (human), P30988; assay: cell-based or functional assay
Sequence of Human CT receptor (calcitonin receptor) (human), P30988 (P30988 25-474): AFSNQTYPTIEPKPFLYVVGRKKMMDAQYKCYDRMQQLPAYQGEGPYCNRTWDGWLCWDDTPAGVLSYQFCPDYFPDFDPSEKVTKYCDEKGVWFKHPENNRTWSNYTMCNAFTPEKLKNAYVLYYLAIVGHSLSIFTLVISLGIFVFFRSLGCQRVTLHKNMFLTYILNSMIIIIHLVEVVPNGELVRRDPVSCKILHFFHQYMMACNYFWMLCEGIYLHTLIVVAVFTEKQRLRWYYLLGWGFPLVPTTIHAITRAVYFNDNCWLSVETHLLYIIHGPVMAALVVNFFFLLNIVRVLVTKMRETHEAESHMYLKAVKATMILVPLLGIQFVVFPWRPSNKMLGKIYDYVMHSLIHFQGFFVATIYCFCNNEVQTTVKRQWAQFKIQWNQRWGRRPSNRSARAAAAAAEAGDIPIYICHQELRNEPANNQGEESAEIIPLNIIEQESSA

Sequence of Human AMY1 receptor (amylin receptor 1) (human), P30988 (P30988 25-474, chain 1 of 2): as the sequence (P30988 25-474) above
Sequence of Human AMY1 receptor (amylin receptor 1) (human), P30988 (O60894 27-148, chain 2 of 2, further chain): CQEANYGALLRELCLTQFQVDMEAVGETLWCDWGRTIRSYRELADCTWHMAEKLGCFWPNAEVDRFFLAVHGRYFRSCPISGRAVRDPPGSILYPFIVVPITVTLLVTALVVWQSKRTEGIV

B1: Compound I (peptide)
peptide: Ac-ASHLSTAVLGKLS[Aib]ELHKLEDYPRTDVGAESP-NH2
SMILES: CC(=O)N[C@@H](C)C(=O)N[C@@H](CO)C(=O)N[C@@H](Cc1c[nH]cn1)C(=O)N[C@@H](CC(C)C)C(=O)N[C@@H](CO)C(=O)N[C@H](C(=O)N[C@@H](C)C(=O)N[C@H](C(=O)N[C@@H](CC(C)C)C(=O)NCC(=O)N[C@@H](CCCCN)C(=O)N[C@@H](CC(C)C)C(=O)N[C@@H](CO)C(=O)NC(C)(C)C(=O)N[C@@H](CCC(=O)O)C(=O)N[C@@H](CC(C)C)C(=O)N[C@@H](Cc1c[nH]cn1)C(=O)N[C@@H](CCCCN)C(=O)N[C@@H](CC(C)C)C(=O)N[C@@H](CCC(=O)O)C(=O)N[C@@H](CC(=O)O)C(=O)N[C@@H](Cc1ccc(O)cc1)C(=O)N1CCC[C@H]1C(=O)N[C@@H](CCCNC(=N)N)C(=O)N[C@H](C(=O)N[C@@H](CC(=O)O)C(=O)N[C@H](C(=O)NCC(=O)N[C@@H](C)C(=O)N[C@@H](CCC(=O)O)C(=O)N[C@@H](CO)C(=O)N1CCC[C@H]1C(N)=O)C(C)C)[C@@H](C)O)C(C)C)[C@@H](C)O
For B1, the hAMY1 cAMP EC50 (pM) [1] was 49.3 pM and the hCT cAMP EC50 (pM) [2] was 31.7 pM.

B2: Compound II (peptide)
peptide: Ac-ASHLSTAVLGK([AEEA-AEEA-γGlu-C20 diacid])LS[Aib]ELHKLEDYPRTDVGAESP-NH2
SMILES: CC(=O)N[C@@H](C)C(=O)N[C@@H](CO)C(=O)N[C@@H](Cc1c[nH]cn1)C(=O)N[C@@H](CC(C)C)C(=O)N[C@@H](CO)C(=O)N[C@H](C(=O)N[C@@H](C)C(=O)N[C@H](C(=O)N[C@@H](CC(C)C)C(=O)NCC(=O)N[C@@H](CCCCNC(=O)COCCOCCNC(=O)COCCOCCNC(=O)CC[C@H](NC(=O)CCCCCCCCCCCCCCCCCCC(=O)O)C(=O)O)C(=O)N[C@@H](CC(C)C)C(=O)N[C@@H](CO)C(=O)NC(C)(C)C(=O)N[C@@H](CCC(=O)O)C(=O)N[C@@H](CC(C)C)C(=O)N[C@@H](Cc1c[nH]cn1)C(=O)N[C@@H](CCCCN)C(=O)N[C@@H](CC(C)C)C(=O)N[C@@H](CCC(=O)O)C(=O)N[C@@H](CC(=O)O)C(=O)N[C@@H](Cc1ccc(O)cc1)C(=O)N1CCC[C@H]1C(=O)N[C@@H](CCCNC(=N)N)C(=O)N[C@H](C(=O)N[C@@H](CC(=O)O)C(=O)N[C@H](C(=O)NCC(=O)N[C@@H](C)C(=O)N[C@@H](CCC(=O)O)C(=O)N[C@@H](CO)C(=O)N1CCC[C@H]1C(N)=O)C(C)C)[C@@H](C)O)C(C)C)[C@@H](C)O
B2 gave a hAMY1 cAMP EC50 (pM) [1] of 49.4 pM and a hCT cAMP EC50 (pM) [2] of 40.9 pM.
